{
  "source": "patent US20240376185A1",
  "about": "(SMIVET B V, published 2024)",
  "binders": {"B1": {"name": "SVT31L (VHH)", "VHH": "QVQLQESGGGSVQAGGSLTLSCAASEFSYNDYTIAWFRRAAGKGRVEDGEGVASITKSYDRAYDNRIHYADSVKGRFTISRDNAKNTVYLQMTSLNPSDTAVYYCALDITPPGGIGASLTEGFLFDYWGQGTQVTVSS"}, "B2": {"name": "SVT20L (VHH)", "VHH": "QVQLQQSGGGLVQAGGSLRLSCAASGRTMSSYAMGWFRQAPGKQREFVAAISRSGGNTYYTDSVKGRFTISRDNAKNTLYLQMNSLKPEETAVYYCAADPNLMYESKWKYRALEAWGQGTLVTVSS"}, "B3": {"name": "SVT25L (VHH)", "VHH": "QVQLQESGGGLVQAGGSLRLSCAASGRTISVYAMGWFRQAPGKQREFVAAISRSDNTYYTDSVKGRFTISRDNVKNTLYLQMNSLKPEETAVYYCAADPNLMYETKWKYRALEAWGQGTLVTVSS"}, "B4": {"name": "SVT29L (VHH)", "VHH": "QVQLQESGGGLVQTGGSLTLSCRAYGRAFDNYHFGWFRQAPGKDREFVASISWKGGSTYRANFALGRFTSSVNRGESSVYLHMSGLTPEDTATYYCAAHDGGDWNYHTGMDYWGKGILVTVSS"}, "B5": {"name": "SVT05L (VHH)", "VHH": "QVQLQESGGGLVQPGGSLRLSCSASGFSFTDDYGIGWFRSGPGKGREAVAPIADREAVAAIALSDGNTYYSASAKGRFTISRDNAKSTAYLQMNNLKPEDTATYYCAADFWGYGMSWPMATLWEYWGQGIQVTVSS"}, "B6": {"name": "SVT08 (VHH)", "VHH": "B1 VHH with T19R, A23T, K57T, A70G, S94N, A106G"}, "B7": {"name": "SVT06 (VHH)", "VHH": "QVQLQESGGGSVQAGGSLRLSCTASELSYDDYTIAWFRRAAGEGRVEDGEGVASITKSYDRAYDNKINYGHSVKGRFTISRDNAKNTVYLQMTDLLPSDTAVYYCALDITPPGGVGASLTEGFLFDYWGQGTQVTVSS"}, "B8": {"name": "SVT31 (VHH)", "VHH": "B1 VHH"}, "B9": {"name": "SVT20 (VHH)", "VHH": "B2 VHH"}, "B10": {"name": "SVT34 (VHH)", "VHH": "B2 VHH with Q6E, A14P, M29I, T69I, S85N"}, "B11": {"name": "SVT16 (VHH)", "VHH": "B3 VHH with L11S, G16D, V31N, V74A, T105S"}, "B12": {"name": "SVT25 (VHH)", "VHH": "B3 VHH"}, "B13": {"name": "SVT13 (VHH)", "VHH": "QVQLQESGGGLVQAGGSLRLSCAVSGTNFDDYAIGWFRQAPGKRREAVACISKTDGVTRYGNGVKGRFTISSDEARNTVFLQMNDLKDEDTAIYYCIGDFKSCGMGYKPIDHWGRGIQVTVSS"}, "B14": {"name": "SVT15 (VHH)", "VHH": "B4 VHH with T19R, Y25S, D30A, R60Y, N73D, G75A, H82Q"}, "B15": {"name": "SVT29 (VHH)", "VHH": "B4 VHH"}},
  "note": "Numbering of substitutions follows the chain as printed.",
  "data": [
    {"target": "T1, tetanus neurotoxin (TeNT), authentic tetanus holotoxin (Clostridium tetani, UniProt P04958 2-1315)", "assay": "ELISA, directly coated TeNT, unlabelled binder", "units": {"EC resulting in A450 0.2": "ng/mL"}, "T1 sequence (P04958 2-457 limits assumed, chain 1 of 2)": "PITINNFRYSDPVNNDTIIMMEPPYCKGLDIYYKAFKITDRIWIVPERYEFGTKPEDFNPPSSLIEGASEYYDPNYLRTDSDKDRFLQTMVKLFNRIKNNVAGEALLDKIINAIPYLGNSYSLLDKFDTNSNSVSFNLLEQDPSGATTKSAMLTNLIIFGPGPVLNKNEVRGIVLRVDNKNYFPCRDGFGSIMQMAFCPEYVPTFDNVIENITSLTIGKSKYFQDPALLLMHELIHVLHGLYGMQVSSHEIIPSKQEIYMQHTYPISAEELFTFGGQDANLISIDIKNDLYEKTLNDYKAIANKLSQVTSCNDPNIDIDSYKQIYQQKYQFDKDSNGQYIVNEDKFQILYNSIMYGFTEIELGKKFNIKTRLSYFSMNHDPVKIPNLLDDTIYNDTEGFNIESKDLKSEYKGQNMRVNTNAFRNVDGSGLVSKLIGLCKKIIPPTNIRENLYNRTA", "T1 sequence (P04958 458-1315 limits assumed, chain 2 of 2)": "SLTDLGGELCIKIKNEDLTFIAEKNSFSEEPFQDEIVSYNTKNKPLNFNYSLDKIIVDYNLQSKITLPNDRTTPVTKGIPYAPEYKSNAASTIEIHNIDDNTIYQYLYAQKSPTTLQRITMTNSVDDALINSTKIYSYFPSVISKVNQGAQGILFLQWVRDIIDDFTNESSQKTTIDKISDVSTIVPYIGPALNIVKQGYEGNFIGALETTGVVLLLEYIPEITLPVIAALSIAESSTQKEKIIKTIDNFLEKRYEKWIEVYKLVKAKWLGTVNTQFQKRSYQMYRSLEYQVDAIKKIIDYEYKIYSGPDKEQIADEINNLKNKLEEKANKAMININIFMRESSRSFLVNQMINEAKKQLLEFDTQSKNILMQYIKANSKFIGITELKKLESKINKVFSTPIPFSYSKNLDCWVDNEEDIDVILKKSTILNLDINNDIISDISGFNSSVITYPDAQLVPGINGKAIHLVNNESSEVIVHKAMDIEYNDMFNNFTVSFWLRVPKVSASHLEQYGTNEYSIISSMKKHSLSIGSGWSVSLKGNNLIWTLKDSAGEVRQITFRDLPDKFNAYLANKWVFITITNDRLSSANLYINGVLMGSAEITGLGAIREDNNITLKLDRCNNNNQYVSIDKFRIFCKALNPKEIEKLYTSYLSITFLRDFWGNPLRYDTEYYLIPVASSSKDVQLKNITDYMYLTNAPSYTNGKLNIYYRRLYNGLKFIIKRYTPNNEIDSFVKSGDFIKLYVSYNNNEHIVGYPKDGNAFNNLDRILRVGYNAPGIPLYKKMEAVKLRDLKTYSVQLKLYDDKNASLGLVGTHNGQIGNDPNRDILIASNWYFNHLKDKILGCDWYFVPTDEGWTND", "values": [
      {"binder": "B1", "EC resulting in A450 0.2": 2.4, "maximal absorbance at 450 nm": 1.32},
      {"binder": "B2", "EC resulting in A450 0.2": 1.2, "maximal absorbance at 450 nm": 1.54},
      {"binder": "B3", "EC resulting in A450 0.2": 3.6, "maximal absorbance at 450 nm": 1.56},
      {"binder": "B4", "EC resulting in A450 0.2": 2.6, "maximal absorbance at 450 nm": 1.52},
      {"binder": "B5", "EC resulting in A450 0.2": 0.51, "maximal absorbance at 450 nm": 1.29}
    ]},
    {"target": "T2, tetanus neurotoxin (TeNT), authentic tetanus holotoxin (Clostridium tetani, UniProt P04958 2-1315)", "assay": "ELISA, directly coated TeNT, E. coli supernatant", "units": {"absorbance at 450 nm": "A450"}, "T2 sequence (P04958 2-457 limits assumed, chain 1 of 2)": "as the sequence (P04958 2-457 limits assumed, chain 1 of 2) above", "T2 sequence (P04958 458-1315 limits assumed, chain 2 of 2)": "as the sequence (P04958 458-1315 limits assumed, chain 2 of 2) above", "values": [
      {"binder": "B6", "absorbance at 450 nm": 1.07},
      {"binder": "B7", "absorbance at 450 nm": 1.04},
      {"binder": "B8", "absorbance at 450 nm": 1.38},
      {"binder": "B9", "absorbance at 450 nm": 1.08},
      {"binder": "B10", "absorbance at 450 nm": 1.43},
      {"binder": "B11", "absorbance at 450 nm": 1.04},
      {"binder": "B12", "absorbance at 450 nm": 1.14},
      {"binder": "B13", "absorbance at 450 nm": 0.762},
      {"binder": "B14", "absorbance at 450 nm": 1.03},
      {"binder": "B15", "absorbance at 450 nm": 1.28}
    ]},
    {"target": "T1, tetanus neurotoxin (TeNT), authentic …", "assay": "ELISA, TeNT captured with cAb-TT2, unlabelled binder", "units": {"EC resulting in A450 0.15": "ng/mL"}, "values": [
      {"binder": "B1", "EC resulting in A450 0.15": 4.3, "maximal absorbance at 450 nm": 0.27},
      {"binder": "B2", "EC resulting in A450 0.15": 3.1, "maximal absorbance at 450 nm": 0.327},
      {"binder": "B3", "EC resulting in A450 0.15": 6.4, "maximal absorbance at 450 nm": 0.362},
      {"binder": "B4", "EC resulting in A450 0.15": 6.3, "maximal absorbance at 450 nm": 0.429},
      {"binder": "B5", "EC resulting in A450 0.15": 0.86, "maximal absorbance at 450 nm": 0.375}
    ]},
    {"target": "T3, recombinant tetanus toxin fragment C (rTTC) (Clostridium tetani, UniProt P04958 865-1315)", "T3 sequence": "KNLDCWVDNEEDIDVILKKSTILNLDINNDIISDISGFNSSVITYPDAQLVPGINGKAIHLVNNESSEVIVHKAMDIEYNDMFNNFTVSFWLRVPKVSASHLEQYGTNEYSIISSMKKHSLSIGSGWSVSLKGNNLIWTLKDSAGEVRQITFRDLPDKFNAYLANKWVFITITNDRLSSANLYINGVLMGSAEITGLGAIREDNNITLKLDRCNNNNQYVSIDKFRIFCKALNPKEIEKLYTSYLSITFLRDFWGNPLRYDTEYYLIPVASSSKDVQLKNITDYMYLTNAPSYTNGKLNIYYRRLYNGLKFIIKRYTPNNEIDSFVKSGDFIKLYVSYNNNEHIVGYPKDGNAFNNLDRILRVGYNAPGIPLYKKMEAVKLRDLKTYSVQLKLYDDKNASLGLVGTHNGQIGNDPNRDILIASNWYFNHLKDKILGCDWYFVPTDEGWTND", "assay": "ELISA, directly coated rTTC, E. coli supernatant", "units": {"absorbance at 450 nm": "A450"}, "values": [
      {"binder": "B6", "absorbance at 450 nm": 0.13},
      {"binder": "B7", "absorbance at 450 nm": 0.105},
      {"binder": "B8", "absorbance at 450 nm": 0.218},
      {"binder": "B9", "absorbance at 450 nm": 0.165},
      {"binder": "B10", "absorbance at 450 nm": 0.16},
      {"binder": "B11", "absorbance at 450 nm": 0.151},
      {"binder": "B12", "absorbance at 450 nm": 0.211},
      {"binder": "B13", "absorbance at 450 nm": 0.128},
      {"binder": "B14", "absorbance at 450 nm": 0.099},
      {"binder": "B15", "absorbance at 450 nm": 0.111}
    ]},
    {"target": "T1, tetanus neurotoxin (TeNT), authentic …", "assay": "GT1b-TeNT inhibition ELISA, EC at A450 0.59", "units": {"concentration giving A450 of 0.59": "µg/mL"}, "values": [
      {"binder": "B1", "concentration giving A450 of 0.59": 0.986},
      {"binder": "B2", "concentration giving A450 of 0.59": 0.039},
      {"binder": "B3", "concentration giving A450 of 0.59": 0.133},
      {"binder": "B4", "concentration giving A450 of 0.59": 0.114},
      {"binder": "B5", "concentration giving A450 of 0.59": "> 1"}
    ]},
    {"target": "T1, tetanus neurotoxin (TeNT), authentic …", "assay": "GT1b-TeNT inhibition ELISA, unlabelled binder", "values": [
      {"binder": "B1", "minimal absorbance at 450 nm": 0.568},
      {"binder": "B2", "minimal absorbance at 450 nm": 0.117},
      {"binder": "B3", "minimal absorbance at 450 nm": 0.106},
      {"binder": "B4", "minimal absorbance at 450 nm": 0.135},
      {"binder": "B5", "minimal absorbance at 450 nm": 0.655}
    ]},
    {"target": "T1, tetanus neurotoxin (TeNT), authentic …", "assay": "ELISA, TeNT captured with cAb-TT2, biotinylated binder", "units": {"EC resulting in A450 0.2": "ng/mL"}, "values": [
      {"binder": "B1", "EC resulting in A450 0.2": 1.5, "maximal absorbance at 450 nm": 1.03},
      {"binder": "B2", "EC resulting in A450 0.2": 4.5, "maximal absorbance at 450 nm": 0.535},
      {"binder": "B3", "EC resulting in A450 0.2": 84, "maximal absorbance at 450 nm": 0.302},
      {"binder": "B4", "EC resulting in A450 0.2": 14, "maximal absorbance at 450 nm": 0.596},
      {"binder": "B5", "EC resulting in A450 0.2": 1.7, "maximal absorbance at 450 nm": 0.622}
    ]},
    {"target": "T1, tetanus neurotoxin (TeNT), authentic …", "assay": "ELISA, directly coated TeNT, biotinylated binder", "units": {"EC resulting in A450 0.4": "ng/mL"}, "values": [
      {"binder": "B1", "EC resulting in A450 0.4": 0.98, "maximal absorbance at 450 nm": 1.43},
      {"binder": "B2", "EC resulting in A450 0.4": 2.1, "maximal absorbance at 450 nm": 1.2},
      {"binder": "B3", "EC resulting in A450 0.4": 43, "maximal absorbance at 450 nm": 0.985},
      {"binder": "B4", "EC resulting in A450 0.4": 6.9, "maximal absorbance at 450 nm": 1.13},
      {"binder": "B5", "EC resulting in A450 0.4": 0.98, "maximal absorbance at 450 nm": 1.26}
    ]},
    {"target": "T4, recombinant tetanus toxin fragment C (rTTC) (Clostridium tetani, UniProt P04958 865-1315)", "T4 sequence": "T3 sequence", "assay": "ELISA, directly coated rTTC, unlabelled binder", "values": [
      {"binder": "B1", "maximal absorbance at 450 nm": 0.483},
      {"binder": "B2", "maximal absorbance at 450 nm": 0.967},
      {"binder": "B3", "maximal absorbance at 450 nm": 0.936},
      {"binder": "B4", "maximal absorbance at 450 nm": 0.58},
      {"binder": "B5", "maximal absorbance at 450 nm": 0.604}
    ]},
    {"target": "T2, tetanus neurotoxin (TeNT), authentic …", "assay": "GT1b-TeNT inhibition ELISA (no SDA: 1.302, 1.257)", "units": {"absorbance at 450 nm": "A450"}, "values": [
      {"binder": "B6", "absorbance at 450 nm": 0.746},
      {"binder": "B7", "absorbance at 450 nm": 0.72},
      {"binder": "B8", "absorbance at 450 nm": 0.105},
      {"binder": "B9", "absorbance at 450 nm": 0.132},
      {"binder": "B10", "absorbance at 450 nm": 0.117},
      {"binder": "B11", "absorbance at 450 nm": 0.12},
      {"binder": "B12", "absorbance at 450 nm": 0.139},
      {"binder": "B13", "absorbance at 450 nm": 0.196},
      {"binder": "B14", "absorbance at 450 nm": 0.19},
      {"binder": "B15", "absorbance at 450 nm": 0.152}
    ]},
    {"target": "T2, tetanus neurotoxin (TeNT), authentic …", "assay": "ELISA, cAb-TT2 captured TeNT, E. coli supernatant", "units": {"absorbance at 450 nm": "A450"}, "values": [
      {"binder": "B6", "absorbance at 450 nm": 0.51},
      {"binder": "B7", "absorbance at 450 nm": 0.683},
      {"binder": "B8", "absorbance at 450 nm": 1.09},
      {"binder": "B9", "absorbance at 450 nm": 0.685},
      {"binder": "B10", "absorbance at 450 nm": 0.483},
      {"binder": "B11", "absorbance at 450 nm": 0.736},
      {"binder": "B12", "absorbance at 450 nm": 0.427},
      {"binder": "B13", "absorbance at 450 nm": 0.165},
      {"binder": "B14", "absorbance at 450 nm": 0.68},
      {"binder": "B15", "absorbance at 450 nm": 0.868}
    ]}
  ]
}
